This is an account of results in US9340580B2, “Peptide with multiple epitopes” (priority 2007, dated 2016).

“And” between values parts separate entries of the source, which are not always exact repeats. Equal entries are not always repeated. Where a SMILES comes first, the peptide text is derived from it.

Data set [1] is described as follows: solubility pre-screen in an aqueous, acidic milieu. In kind it is physicochemical.
Data set [2] is described as follows: precipitation in the aqueous solution of the binding assay. In kind it is physicochemical. The conditions noted are these: aqueous solution of the MHC class II binding assay, read-out: Precipitation in assay: lowest concentration at which an insoluble white precipitate is seen. The text has this:
This is a characteristic of promiscuous HLA-DRB1* binders.

In data set [3] the target is T1, human MHC class II allotype HLA-DRB1*0701 (human).
T1 construct: Source and construct of the MHC protein in the assay are not described
Nature of the data set: competitive MHC class II binding assay; competitor control peptide influenza haemagglutinin 307-319.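 Note: each test peptide was scored on how well it displaces the known control binder from each human MHC class II allotype studied.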

Data set [4] addresses T2, human MHC class II allotype HLA-DRB1*0401 (human).
T2 construct: Source and construct of the MHC protein in the assay are not described
Described as above.

Data set [5] addresses T3, human MHC class II allotype DQA1*0102/DQB1*0602 (human, UniProt P01920 33-230, limits assumed).
T3 construct: Source and construct of the MHC protein in the assay are not described
T3 MHC II alpha: not shown
T3 MHC II beta: not shown
Put plainly: competitive MHC class II binding assay; competitor control peptide human insulin B 1-15.

The target of data set [6] is T4, human MHC class II allotype HLA-DRB1*0101 (human).
T4 construct: Source and construct of the MHC protein in the assay are not described
Put plainly: competitive MHC class II binding assay; competitor control peptide influenza haemagglutinin 307-319.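 Note: each test peptide was scored on how well it displaces the known control binder from each human MHC class II allotype studied.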

Data set [7] deals with T5, human MHC class II allotype HLA-DRB1*1101 (human).
T5 construct: Source and construct of the MHC protein in the assay are not described
Described as above.

The target of data set [8] is T6, human MHC class II allotype HLA-DRB1*1501 (human).
T6 construct: Source and construct of the MHC protein in the assay are not described
Nature of the data set: competitive MHC class II binding assay; competitor control peptide myelin basic protein 85-99.

Regarding `CC(C)C[C@H](NC(=O)[C@H](CCC(N)=O)NC(=O)[C@H](Cc1ccccc1)NC(=O)[C@@H]1CCCN1C(=O)[C@H](CCCCN)NC(=O)CNC(=O)[C@@H](N)CCCNC(=N)N)C(=O)N[C@@H](CCC(=O)O)C(=O)N[C@@H](C)C(=O)N[C@H](C(=O)N[C@@H](Cc1ccccc1)C(=O)N[C@@H](CCC(=O)O)C(=O)N[C@@H](C)C(=O)N[C@@H](CC(N)=O)C(=O)N[C@@H](CCC(N)=O)C(=O)N[C@@H](CC(N)=O)C(=O)N[C@H](C(=O)O)[C@@H](C)O)C(C)C` [HDM21B] (H-RGKPFQLEAVFEANQNT-OH; N-terminus and C-terminus assumed), the Solubility test result in data set [1] was “YES”. The solubility in data set [2] is 1000 µM and 1980 µg/mL.

For the molecule `CC(C)C[C@H](NC(=O)[C@H](CCC(N)=O)NC(=O)[C@H](Cc1ccccc1)NC(=O)[C@@H]1CCCN1C(=O)[C@@H](N)CCCCN)C(=O)N[C@@H](CCC(=O)O)C(=O)N[C@@H](C)C(=O)N[C@H](C(=O)N[C@@H](Cc1ccccc1)C(=O)N[C@@H](CCC(=O)O)C(=O)N[C@@H](C)C(=O)N[C@@H](CC(N)=O)C(=O)N[C@@H](CCC(N)=O)C(=O)N[C@@H](CC(N)=O)C(=O)N[C@H](C(=O)O)[C@@H](C)O)C(C)C` [HDM21] (H-KPFQLEAVFEANQNT-OH; N-terminus and C-terminus assumed), the Solubility test entry in data set [1] was “YES”. In addition, the solubility in data set [2] was 200 µM and 300 µg/mL.

Take `CC[C@H](C)[C@H](NC(=O)[C@H](CCC(=O)O)NC(=O)[C@@H](NC(=O)[C@H](CCCCN)NC(=O)[C@H](C)N)[C@@H](C)CC)C(=O)N[C@@H](CCCCN)C(=O)N[C@@H](C)C(=O)N[C@@H](CO)C(=O)N[C@@H](CC(C)C)C(=O)N[C@@H](CC(=O)O)C(=O)NCC(=O)N[C@@H](CC(C)C)C(=O)N[C@@H](CCC(=O)O)C(=O)O` [HDM27] (H-AKIEIKASLDGLE-OH): the Solubility test entry in data set [1] is “YES”. Further, the solubility in data set [2] is 1000 µM and 1400 µg/mL.

For the molecule `CC[C@H](C)[C@H](NC(=O)[C@H](C)NC(=O)[C@H](C)NC(=O)[C@@H](NC(=O)[C@H](C)NC(=O)[C@H](CCC(=O)O)NC(=O)[C@H](CC(=O)O)NC(=O)[C@@H](NC(=O)[C@H](C)NC(=O)[C@@H](N)CCCCN)C(C)C)C(C)C)C(=O)N[C@@H](CCC(=O)O)C(=O)N[C@@H](CCCCN)C(=O)N[C@@H](CO)C(=O)O` [HDM28] (H-KAVDEAVAAIEKS-OH), the Solubility test entry in data set [1] is given as “YES”. The solubility in data set [2] was 1000 µM and 1300 µg/mL.

Regarding `CSCC[C@H](NC(=O)[C@@H]1CCCN1C(=O)[C@H](CC(=O)O)NC(=O)[C@H](Cc1ccccc1)NC(=O)[C@@H](NC(=O)[C@H](CCC(=O)O)NC(=O)[C@H](CO)NC(=O)[C@@H](N)CCCCN)[C@@H](C)O)C(=O)N[C@@H](CCCCN)C(=O)N[C@H](C(=O)N1CCC[C@H]1C(=O)N[C@@H](CC(=O)O)C(=O)N[C@@H](Cc1c[nH]cn1)C(=O)N[C@@H](CO)C(=O)N[C@@H](CC(=O)O)C(=O)O)C(C)C` [HDM29B] (H-KSETFDPMKVPDHSD-OH), the Solubility test result in data set [1] is on record as “YES”. In addition, the solubility in data set [2] was 1000 µM and 1700 µg/mL.

`CC[C@H](C)[C@H](NC(=O)CNC(=O)[C@@H](NC(=O)[C@H](Cc1c[nH]cn1)NC(=O)[C@H](CCCNC(=N)N)NC(=O)[C@H](CCC(=O)O)NC(=O)[C@H](Cc1ccccc1)NC(=O)[C@H](CCCCN)NC(=O)[C@@H](N)CC(=O)O)[C@@H](C)CC)C(=O)N[C@H](C(=O)N[C@@H](CC(=O)O)C(=O)N[C@@H](CC(C)C)C(=O)N[C@@H](CCCCN)C(=O)O)[C@@H](C)CC` [HDM30] (H-DKFERHIGIIDLK-OH; N-terminus and C-terminus assumed): in data set [1], the Solubility test result is listed as “YES”. The solubility in data set [2] is 5000 µM and 7900 µg/mL.

`CC[C@H](C)[C@H](NC(=O)CNC(=O)[C@@H](NC(=O)[C@@H](N)Cc1c[nH]cn1)[C@@H](C)CC)C(=O)N[C@H](C(=O)N[C@@H](CC(=O)O)C(=O)N[C@@H](CC(C)C)C(=O)N[C@@H](CCCCN)C(=O)NCC(=O)N[C@@H](CCC(=O)O)C(=O)N[C@@H](CC(C)C)C(=O)N[C@@H](CC(=O)O)C(=O)N[C@@H](CCSC)C(=O)N[C@@H](CCCNC(=N)N)C(=O)N[C@@H](CC(N)=O)C(=O)O)[C@@H](C)CC` [HDM31A] (H-HIGIIDLKGELDMRN-OH): the Solubility test result in data set [1] is “YES”. Moreover, the solubility in data set [2] is 1000 µM and 1700 µg/mL.

As for `CC[C@H](C)[C@H](N)C(=O)N[C@@H](CC(=O)O)C(=O)N[C@@H](CC(C)C)C(=O)N[C@@H](CCCCN)C(=O)NCC(=O)N[C@@H](CCC(=O)O)C(=O)N[C@@H](CC(C)C)C(=O)N[C@@H](CC(=O)O)C(=O)N[C@@H](CCSC)C(=O)N[C@@H](CCCNC(=N)N)C(=O)N[C@@H](CC(N)=O)C(=O)N[C@H](C(=O)N[C@@H](CCC(N)=O)C(=O)N[C@H](C(=O)N[C@@H](CCCNC(=N)N)C(=O)O)C(C)C)[C@@H](C)CC` [HDM32A] (H-IDLKGELDMRNIQVR-OH), the Solubility test entry in data set [1] is recorded as “YES”. Further, the solubility in data set [2] is 5000 µM and 9000 µg/mL.

As for `CC[C@H](C)[C@H](N)C(=O)N[C@@H](CC(=O)O)C(=O)N[C@@H](CC(C)C)C(=O)N[C@@H](CCCCN)C(=O)NCC(=O)N[C@@H](CCC(=O)O)C(=O)N[C@@H](CC(C)C)C(=O)N[C@@H](CC(=O)O)C(=O)N[C@@H](CCSC)C(=O)N[C@@H](CCCNC(=N)N)C(=O)N[C@@H](CC(N)=O)C(=O)N[C@H](C(=O)N[C@@H](CCC(N)=O)C(=O)O)[C@@H](C)CC` [HDM32] (H-IDLKGELDMRNIQ-OH; N-terminus and C-terminus assumed), in data set [1], the Solubility test entry was “YES”. Further, the solubility in data set [2] was 5000 µM and 7700 µg/mL.

Take `CC[C@H](C)[C@H](NC(=O)[C@H](C)NC(=O)[C@@H](N)[C@@H](C)O)C(=O)N[C@@H](Cc1ccccc1)C(=O)N[C@@H](CCC(N)=O)C(=O)N[C@@H](CC(=O)O)C(=O)N[C@H](C(=O)N[C@H](C(=O)N[C@@H](CCCNC(=N)N)C(=O)N[C@@H](C)C(=O)N[C@@H](CCC(=O)O)C(=O)N[C@@H](CCSC)C(=O)N[C@H](C(=O)N[C@@H](CCCCN)C(=O)O)[C@@H](C)O)C(C)C)[C@@H](C)O` [HDM48] (H-TAIFQDTVRAEMTK-OH; N-terminus and C-terminus assumed): in data set [1], the Solubility test entry is given as “YES”. For the same molecule, the solubility in data set [2] was 1000 µM and 1600 µg/mL.

Take HDDVVSMEYDLAYKL (Synthetic peptide, 80.9% purity) [HDM39A]: the “ratio of its own IC50 to that of the control peptide” value (“ratio of its own IC50” for short) was 0.71 in data set [3], 76.2 in data set [4] and 0.1 in data set [5].

Regarding DGVLACAIATHAKIR (Synthetic peptide) [HDM26A], the “ratio of its own IC50” value in data set [6] is 42.3; in data set [3] it was 16.3; in data set [5], 0.61.

Regarding VSMEYDLAYKLGDLH (Synthetic peptide, 66.9% purity) [HDM40A], the “ratio of its own IC50” value in data set [7] is 6; in data set [3] it was 2.29.

On to RYVAREQSCRRPN (Synthetic peptide, 79.7% purity) [HDM06], for which the figures for the “ratio of its own IC50” value in data set [7] and in data set [5] were 30.4 and 0.86, respectively.

For the molecule RTVTPIRMQGGCG (Synthetic peptide, 79.6% purity) [HDM02], the “ratio of its own IC50” value in data set [8] was 80; in data set [5] it was 0.03.

On to REALAQTHSAIAVI (Synthetic peptide, 69.6% purity) [HDM09A], for which the “ratio of its own IC50” value was determined as 200 in data set [8], 21.1 in data set [7] and 0.49 in data set [3].

On to KPFQLEAVFEANQNTK (Synthetic peptide, 90.1% purity) [HDM21A], for which the “ratio of its own IC50” value in data set [7] stood at 10.3; in data set [6] it was 200; in data set [4] it was 52.2.

In the case of KPFQLEAVFEANQNT (Synthetic peptide, 88.7% purity) [HDM21], the entries for the “ratio of its own IC50” value in data set [7], in data set [6] and in data set [4] were 11.7, 92 and 11.2, respectively.

As to EAVFEANQNTKTAK (Synthetic peptide, 90.3% purity) [HDM22A], the “ratio of its own IC50” value in data set [7] was determined as 80; in data set [4] it was 329.

In the case of DKFERHIGIIDLK (Synthetic peptide, 81.4% purity) [HDM30], the “ratio of its own IC50” value in data set [3] was 6.2.

Take DTVRAEMTKVLAP (Synthetic peptide, 69.5% purity) [HDM49]: the “ratio of its own IC50” value amounted to 671 in data set [8] and 1.7 in data set [5].

On to RNQSLDLAEQELVDCASQH (Synthetic peptide, 60.1% purity) [HDM03C], for which, in data set [5], the “ratio of its own IC50” value was 0.16.

On to RGLKQMKRVGDAN (Synthetic peptide, 84.0% purity) [HDM35], for which the “ratio of its own IC50” value in data set [7] was 1.26.
